Target: human FLT3/FLK2 receptor protein (human) (UniProt P36888)
Assay: flow cytometry on SP2/0 cells expressing human FLT3/FLK2; same table: unstained SP2/0 clone 3 6063, secondary Ab 9522

Chain of human FLT3/FLK2 receptor protein (human) (P36888 27-993): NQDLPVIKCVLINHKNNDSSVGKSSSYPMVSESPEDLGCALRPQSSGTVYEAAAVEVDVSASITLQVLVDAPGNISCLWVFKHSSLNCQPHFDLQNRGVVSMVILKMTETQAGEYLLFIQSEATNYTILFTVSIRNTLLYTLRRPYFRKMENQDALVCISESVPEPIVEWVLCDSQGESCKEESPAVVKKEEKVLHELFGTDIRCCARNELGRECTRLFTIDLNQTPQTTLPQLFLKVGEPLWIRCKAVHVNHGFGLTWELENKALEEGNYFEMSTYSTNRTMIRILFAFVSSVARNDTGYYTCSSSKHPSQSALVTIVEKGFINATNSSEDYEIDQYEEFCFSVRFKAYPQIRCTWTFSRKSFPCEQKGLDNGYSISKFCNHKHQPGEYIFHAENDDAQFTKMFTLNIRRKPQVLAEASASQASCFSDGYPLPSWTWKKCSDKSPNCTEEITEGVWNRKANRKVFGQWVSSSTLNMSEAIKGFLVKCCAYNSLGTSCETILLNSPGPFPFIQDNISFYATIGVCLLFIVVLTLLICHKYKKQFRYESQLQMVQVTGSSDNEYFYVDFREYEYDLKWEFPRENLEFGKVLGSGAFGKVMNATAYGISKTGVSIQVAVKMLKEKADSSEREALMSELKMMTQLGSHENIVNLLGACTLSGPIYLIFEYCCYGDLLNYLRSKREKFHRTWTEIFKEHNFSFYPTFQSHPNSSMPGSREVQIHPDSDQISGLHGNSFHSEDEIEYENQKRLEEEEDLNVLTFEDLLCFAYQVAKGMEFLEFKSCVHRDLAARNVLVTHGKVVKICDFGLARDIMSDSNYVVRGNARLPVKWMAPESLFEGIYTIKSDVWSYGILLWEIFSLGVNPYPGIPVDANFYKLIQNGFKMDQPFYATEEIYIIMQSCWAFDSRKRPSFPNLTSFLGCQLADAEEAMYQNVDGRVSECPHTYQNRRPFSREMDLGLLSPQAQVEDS

MFI: 11500
Substance: ISOTYPE CTR (antibody)

— US20190389955A1
